Measured values from IntAct's records for PubMed 23746845.

B1: Telomere length regulator protein RIF1 (Saccharomyces cerevisiae), P29539 (parent)
chain: MSKDFSDKKKHTIDRIDQHILRRSQHDNYSNGSSPWMKTNLPPPSPQAHMHIQSDLSPTPKRRKLASSSDCENKQFDLSAINKNLYPEDTGSRLMQSLPELSASNSDNVSPVTKSVAFSDRIESSPIYRIPGSSPKPSPSSKPGKSILRNRLPSVRTVSDLSYNKLQYTQHKLHNGNIFTSPYKETRVNPRALEYWVSGEIHGLVDNESVSEFKEIIEGGLGILRQESEDYVARRFEVYATFNNIIPILTTKNVNEVDQKFNILIVNIESIIEICIPHLQIAQDTLLSSSEKKNPFVIRLYVQIVRFFSAIMSNFKIVKWLTKRPDLVNKLKVIYRWTTGALRNENSNKIIITAQVSFLRDEKFGTFFLSNEEIKPIISTFTEIMEINSHNLIYEKLLLIRGFLSKYPKLMIETVTSWLPGEVLPRIIIGDEIYSMKILITSIVVLLELLKKCLDFVDEHERIYQCIMLSPVCETIPEKFLSKLPLNSYDSANLDKVTIGHLLTQQIKNYIVVKNDNKIAMDLWLSMTGLLYDSGKRVYDLTSESNKVWFDLNNLCFINNHPKTRLMSIKVWRIITYCICTKISQKNQEGNKSLLSLLRTPFQMTLPYVNDPSAREGIIYHLLGVVYTAFTSNKNLSTDMFELFWDHLITPIYEDYVFKYDSIHLQNVLFTVLHLLIGGKNADVALERKYKKHIHPMSVIASEGVKLKDISSLPPQIIKREYDKIMKVVFQAVEVAISNVNLAHDLILTSLKHLPEDRKDQTHLESFSSLILKVTQNNKDTPIFRDFFGAVTSSFVYTFLDLFLRKNDSSLVNFNIQISKVGISQGNMTLDLLKDVIRKARNETSEFLIIEKFLELDDKKTEVYAQNWVGSTLLPPNISFREFQSLANIVNKVPNENSIENFLDLCLKLSFPVNLFTLLHVSMWSNNNFIYFIQSYVSKNENKLNVDLITLLKTSLPGNPELFSGLLPFLRRNKFMDILEYCIHSNPNLLNSIPDLNSDLLLKLLPRSRASYFAANIKLFKCSEQLTLVRWLLKGQQLEQLNQNFSEIENVLQNASDSELEKSEIIRELLHLAMANPIEPLFSGLLNFCIKNNMADHLDEFCGNMTSEVLFKISPELLLKLLTYKEKPNGKLLAAVIEKIENGDDDYILELLEKIIIQKEIQILEKLKEPLLVFFLNPVSSNMQKHKKSTNMLRELVLLYLTKPLSRSAAKKFFSMLISILPPNPNYQTIDMVNLLIDLIKSHNRKFKDKRTYNATLKTIGKWIQESGVVHQGDSSKEIEAIPDTKSMYIPCEGSENKLSNLQRKVDSQDIQVPATQGMKEPPSSIQISSQISAKDSDSISLKNTAIMNSSQQESHANRSRSIDDETLEEVDNESIREIDQQMKSTQLDKNVANHSNICSTKSDEVDVTELHESIDTQSSEVNAYQPIEVLTSELKAVTNRSIKTNPDHNVVNSDNPLKRPSKETPTSENKRSKGHETMVDVLVSEEQAVSPSSDVICTNIKSIANEESSLALRNSIKVETNCNENSLNVTLDLDQQTITKEDGKGQVEHVQRQENQESMNKINSKSFTQDNIAQYKSVKKARPNNEGENNDYACNVEQASPVRNEVPGDGIQIPSGTILLNSSKQTEKSKVDDLRSDEDEHGTVAQEKHQVGAINSRNKNNDRMDSTPIQGTEEESREVVMTEEGINVRLEDSGTCELNKNLKGPLKGDKDANINDDFVPVEENVRDEGFLKSMEHAVSKETGLEEQPEVADISVLPEIRIPIFNSLKMQGSKSQIKEKLKKRLQRNELMPPDSPPRMTENTNINAQNGLDTVPKTIGGKEKHHEIQLGQAHTEADGEPLLGGDGNEDATSREATPSLKVHFFSKKSRRLVARLRGFTPGDLNGISVEERRNLRIELLDFMMRLEYYSNRDNDMN
partner: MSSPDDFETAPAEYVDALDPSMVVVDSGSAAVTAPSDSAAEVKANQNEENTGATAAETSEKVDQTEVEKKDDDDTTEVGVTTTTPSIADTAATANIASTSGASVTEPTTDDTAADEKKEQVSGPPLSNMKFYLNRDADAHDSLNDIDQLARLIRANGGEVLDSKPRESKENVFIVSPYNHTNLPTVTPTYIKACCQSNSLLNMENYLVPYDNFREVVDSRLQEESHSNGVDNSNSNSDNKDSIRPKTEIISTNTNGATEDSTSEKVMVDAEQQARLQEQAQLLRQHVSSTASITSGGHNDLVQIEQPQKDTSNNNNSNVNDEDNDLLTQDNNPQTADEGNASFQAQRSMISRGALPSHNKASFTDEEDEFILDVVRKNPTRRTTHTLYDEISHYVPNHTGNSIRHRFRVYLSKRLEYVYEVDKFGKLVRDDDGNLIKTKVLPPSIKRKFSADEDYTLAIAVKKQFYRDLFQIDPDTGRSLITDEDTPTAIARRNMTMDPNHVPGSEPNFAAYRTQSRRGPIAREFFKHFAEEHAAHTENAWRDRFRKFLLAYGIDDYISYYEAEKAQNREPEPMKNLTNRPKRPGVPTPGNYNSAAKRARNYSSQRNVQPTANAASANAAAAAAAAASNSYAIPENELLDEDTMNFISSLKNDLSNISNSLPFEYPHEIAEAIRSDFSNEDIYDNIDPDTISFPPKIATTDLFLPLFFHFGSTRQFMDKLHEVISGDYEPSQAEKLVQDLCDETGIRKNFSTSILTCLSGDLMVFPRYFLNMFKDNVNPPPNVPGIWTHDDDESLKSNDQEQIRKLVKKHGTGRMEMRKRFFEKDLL
B2: DNA-binding protein RAP1 (Saccharomyces cerevisiae), P11938 (parent)
chain: B1 partner

Variants of: B1
Conditions: with rap1_yeast RAP1, P11938

| effect of a mutation on the interaction | Variant |
| --- | --- |
| decreasing interaction strength | L1905R |

Variants of: B1
Conditions: with rap1_yeast RAP1, P11938
Remark: another data set of the same source

| effect of a mutation on the interaction | Variant |
| --- | --- |
| disrupting interaction strength | L1905R |
| decreasing interaction strength | R1895E |
| disrupting interaction strength | I1760R |
| disrupting interaction strength | I1764R |
| disrupting interaction strength | I1762R |

Variants of: B2
Conditions: with rif1_yeast RIF1, P29539

| effect of a mutation on the interaction | Variant |
| --- | --- |
| disrupting interaction strength | G760R |
| disrupting interaction strength | A733R |
